Test [1] has as its target T1, recombinant human TIGIT extra cellular domain (ECD) protein (human, UniProt Q495A1 22-138).
T1 construct: Purchased protein; it begins with the signal peptide; also called h-TIGIT ECD; human TIGIT ECD
T1 sequence: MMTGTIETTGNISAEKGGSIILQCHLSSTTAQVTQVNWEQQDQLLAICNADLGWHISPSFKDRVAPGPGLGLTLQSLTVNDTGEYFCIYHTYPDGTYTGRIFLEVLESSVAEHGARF
Nature of the test: ELISA, VHH in supernatant. (In general: ELISA stands for enzyme-linked immunosorbent assay.)

The target in test [2] is T2, human TIGIT stably expressed on cells (Jurkat; 293T) (human, UniProt Q495A1 22-244).
T2 construct: the expression vector's insert is not described further; also called h-TIGIT; human TIGIT transfected Jurkat cells
T2 sequence: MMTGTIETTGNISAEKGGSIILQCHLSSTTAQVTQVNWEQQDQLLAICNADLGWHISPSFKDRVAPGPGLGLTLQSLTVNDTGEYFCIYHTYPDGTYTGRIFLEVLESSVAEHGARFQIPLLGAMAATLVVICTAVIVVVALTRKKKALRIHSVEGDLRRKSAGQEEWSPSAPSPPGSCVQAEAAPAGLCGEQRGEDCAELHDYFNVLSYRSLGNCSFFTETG
Nature of the test: whole cell binding, flow cytometry, n=3. For orientation: Flow cytometry measures light scatter and fluorescence of single cells or particles in a stream.

The target in test [3] is T2, human TIGIT stably expressed on cells …. Nature of the test: flow cytometry, whole cell binding assay on human TIGIT expressing cells (upper panel).
The target in test [4] is T1, recombinant human TIGIT extra cellular …. The test can be described thus: ELISA on recombinant human TIGIT ECD.
For test [5], the target named is T3, recombinant cynomolgus TIGIT (cyno-TIGIT ECD) (cynomolgus monkey, UniProt A0A7N9I9V4 89-209).
T3 construct: extracellular domain
Nature of the test: ELISA on recombinant cyno-TIGIT.

Test [6] concerns the target T2, human TIGIT stably expressed on cells …. The test can be described thus: cell-based or functional assay.
The target is the same in test [7]. Nature of the test: cell-based or functional assay. This is another data set of the same source.
In test [8] the target is T4, recombinant mouse-TIGIT (mouse, UniProt P86176 29-148, limits assumed).
T4 sequence (looked up): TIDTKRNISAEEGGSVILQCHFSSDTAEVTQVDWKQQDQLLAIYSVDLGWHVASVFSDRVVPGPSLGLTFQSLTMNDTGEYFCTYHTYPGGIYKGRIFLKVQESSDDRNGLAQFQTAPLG
Nature of the test: ELISA.

T3 sequence (A0A7N9I9V4 entry or part of it): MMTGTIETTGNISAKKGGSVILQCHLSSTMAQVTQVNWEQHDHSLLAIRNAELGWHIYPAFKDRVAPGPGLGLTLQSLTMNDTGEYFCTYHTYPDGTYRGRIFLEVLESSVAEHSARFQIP

B1: 1G1-1C12 VHH (VHH)
VHH: QVQLVESGGGVVQPGRSLRLSCAASGPSFSSYPMGWFRQAPGKERESVAAISSDLRFTYYADSVKGRFTISRDNSKNTLYLQMNSLRAEDTAVYYCAARDSGSGYYSRKQWYDYWGQGTLVTVSS
notes: VHH in bacterial supernatant
In the case of B1, the binding result in test [1] is “binds”.

B2: Bivalent 2A3 antibody (2A3-Fc), 2A3 VHH with human IgG1 CH2 and CH3 domains (Fc fusion)
chain: QVQLVESGGGVVQPGRSLRLSCAASGGSFSSYPMGWFRQAPGKERESVAAISSDMRFTYYADSVKGRFTISRDNSKNTLYLQMNSLRAEDTAVYYCAARDSGVGYYSRAQWYDYWGQGTLVTVSS
notes: Expressed in ExpiCHO, protein A purified; also called 2A3-Fc mAb; 2A3 clone; not shown: human IgG1 CH2 and CH3 domains
What is called EC50 is the concentration that produces a half-maximal response. Low values mean an effect from little substance, high ones a need for much substance. A word on the EC50 (read off the curve): it is the midpoint of the concentration-response curve. In test [2], B2 returned a concentration giving a half-maximal response (EC50) of 0.32 nM. In addition, the figures for the 50% effective concentration (EC50 (read off the curve)) in test [3], in test [4] and in test [5] were around 0.5 nM, around 0.1 µg/mL and around 0.1 µg/mL, respectively. Besides, the “EC50 (read off the curve); NFAT reporter activity (RLU), human TIGIT blockade reporter assay (lower panel)” value in test [6] is around 1 nM. For the same molecule, in test [7], the “EC50, TIGIT blockade NFAT luciferase reporter assay” value came out at 0.48 nM. Further, the binding result in test [8] was “no binding”.

(Values after patent publication US20230037911A1 (SHANGHAI HENLIUS BIOTECH, published 2023).)
